Source: patent US20230285509A1, “INTERFERON-BASED DISEASE TREATMENT METHOD” (XIAMEN AMOYTOP BIOTECH CO., LTD., priority 2019, published 2023)
Values joined by “and” are separate entries in the source; they are usually repeats but may differ in a detail not shown here. Equal entries are not always repeated.

B1: deglycosylated mIFN-α4: recombinant mouse interferon α4 expressed in Pichia pastoris, glycosyl groups removed with glycosidase (protein, UniProt P07351 25-186, looked up)
Interferon alpha-4: CDLPHTYNLGNKRALTVLEEMRRLPPLSCLKDRKDFGFPLEKVDNQQIQKAQAILVLRDLTQQILNLFTSKDLSATWNATLLDSFCNDLHQQLNDLKACVMQEPPLTQEDSLLAVRTYFHRITVYLRKKKHSLCAWEVIRAEVWRALSSSTNLLARLSEEKE
modifications: deglycosylated
notes: recombinant mouse interferon α4 expressed in Pichia pastoris, glycosyl groups removed with glycosidase
B2: PEG-mIFN-α4: PEGylated recombinant mouse interferon α4: deglycosylated mIFN-α4 modified with 40 kD Y-type polyethylene glycol succinimide ester (YPEG-NHS) (protein, UniProt P07351 25-186, looked up)
Interferon alpha-4: B1 Interferon alpha-4
modifications: 40 kD Y-type PEG, deglycosylated

What was measured:
[1] = tested on: liver cancer H22; assay: Liver cancer H22 in mice, tumor volume (Example 7); type: in vivo, BALB/c mice; conditions: 18 days after tumor inoculation; once a week; PEG-mIFN-α4 1.0 μg/w sc, gemcitabine 60 mg/kg/w ip
Description: The average tumor volume for each individual group was calculated based on the formula V=1/2ab^2 (a and b represent length and width (mm) respectively) by measuring the tumor diameter, and the anti-tumor effect was observed dynamically.
Statistical tests were all two-sided tests.

[2] = tested on: lung cancer LLC; assay: Lung cancer LLC in mice, tumor volume (Example 8); type: in vivo, C57BL/6N mice; conditions: 24 days after tumor inoculation; once a week; PEG-mIFN-α4 1.0 μg/w sc, gemcitabine 60 mg/kg/w ip
Text: (§1) The anticancer agent was gemcitabine (Jiangsu Hansoh Pharmaceutical Group Co., Ltd). […] Statistical tests were all two-sided tests.

[3] = tested on: colorectal cancer CT26; assay: Colorectal cancer CT26 in mice, tumor volume (Example 9); type: in vivo, BALB/c mice; conditions: day 43; once a week; PEG-mIFN-α4 1.0 μg/w sc, gemcitabine 60 mg/kg/w ip
Text: as §1

[4] = tested on: melanoma B16; assay: Melanoma B16 in mice, tumor volume (Example 10); type: in vivo, C57BL/6N mice; conditions: 14 days after tumor inoculation; once a week; PEG-mIFN-α4 1.0 μg/w sc, gemcitabine 60 mg/kg/w ip
Text: as §1

[5] = tested on: transplanted liver cancer H22; assay: Transplanted liver cancer H22 in mice, survival, gemcitabine combination (Example 11); type: in vivo, BALB/c mice; conditions: gemcitabine 60 mg/kg ip once a week
Description: After being divided into groups, the corresponding drugs or saline were administered. […] With respect to the intermittent administration, it was administered once every 48 hours, for three times continuously, before discontinuation of 144 hours. Gemcitabine was administered by intraperitoneal injection at a dose of 60 mg per kilogram of body weight each time, once a week. The normal saline control group was given an equal volume of normal saline. The PEG-mIFN-α4 intermittent administration combined with gemcitabine group was given gemcitabine during the first injection of PEG-mIFN-α4, and then administered with gemcitabine once a week thereafter. All groups were subjected to survival analysis to compare differences between groups.

[6] = tested on: mouse fibroblast/encephalomyocarditis virus (L929/EMCV); assay: Mouse fibroblast/encephalomyocarditis virus (L929/EMCV) cytopathic inhibition method; type: cell-based; conditions: commercial mIFN-α4 (R&D) as the standard
Description: The bacterial endotoxin content of the deglycosylated mIFN-α4 stock solution was determined by the Limulus reagent method as lower than 60 EU/mg. specific activity was determined as 5.4×10^8 U/mg by using the commercial mIFN-α4 (R&D, catalog number 12115-1) as the standard, and by using the mouse fibroblast/encephalomyocarditis virus (L929/EMCV) cytopathic inhibition method.
The bacterial endotoxin content of the PEG-mIFN-α4 stock solution was determined by the Limulus reagent method as lower than 15 EU/mg. Specific activity was determined as 6.1×10^6 U/mg by using the commercial mIFN-α4 (R&D, catalog number 12115-1) as the standard, and by using the mouse fibroblast/encephalomyocarditis virus (L929/EMCV) cytopathic inhibition method.

[7] = parameters: species or system BALB/c mice; conditions: mouse, in vivo, sc
Description: In this example, BALB/c mice were purchased from Beijing Vital River Laboratory Animal Technology Co., Ltd. The blood concentration of PEG-mIFN-α4 was detected by double-antibody sandwich ELISA.
6-8 weeks old, SPF grade BALB/c mice (N=60, with fifty-fifty of male and female mice) were injected with a single injection of 1 μg/mouse PEG-mIFN-α4 subcutaneously on the back of the neck. Plasma samples were collected before the injection (0 h) and after the injection at 15 h, 24 h, 36 h, 48 h, 72 h, 96 h, 120 h, 168 h, 216 h, 264 h, 312 h, to determine the blood concentration. Phoenix WinNonlin 6.4 software was used to calculate the pharmacokinetic parameters.

[8] = tested on: transplanted liver cancer H22; assay: Continuous vs intermittent administration, transplanted liver cancer H22 in mice, survival (Example 6); type: in vivo, BALB/c mice

| Molecule | Mean tumor volume (Standard deviation) [1] | Mean tumor volume (Standard deviation) [2] | Mean tumor volume (Standard deviation) [3] | Mean tumor volume (Standard deviation) [4] | mortality rate ([5]; by day 41, PEG-mIFN-α4 1 microgram per mouse intermittent) [%] | Median survival period (Time after tumor inoculation, days) [5] [days] | Specific activity [6] | Cl_F—obs [7] [mL/h] | T1/2 (elimination half-life) [7] [h] | Tmax (plasma concentration peak time) [7] [h] | Vz_F—obs [7] [mL] | Median survival period (Time after tumor inoculation, days) ([8]; continuous administration: 1 microgram per animal sc once every 48 hours, 21 times) | Survival rate during the observation period ([8]; intermittent administration: 1 microgram per animal sc once every 48 hours for 3 times, suspended 144 hours, 4 rounds, Day 40 after tumor inoculation) |
| --- | --- | --- | --- | --- | --- | --- | --- | --- | --- | --- | --- | --- | --- |
| Nc1ccn([C@@H]2O[C@H](CO)[C@@H](O)C2(F)F)c(=O)n1 [Gemcitabine, reference compound] | 1619.3 (911.2) mm^3 | 1466.6 (791.5) mm^3 | 1558.2 (2225.2) mm^3 | 2279.9 (807.6) mm^3 | 73.1 | 21.5 | – | – | – | – | – | – | – |
| B1 | – | – | – | – | – | – | 5.4×10^8 U/mg | – | – | – | – | – | – |
| B2 | 846.2 (592.0) mm^3 | 4000.8 (2513.7) mm^3 | 5283.7 (5030.5) mm^3 | 1639.7 (979.5) mm^3 | – | – | 6.1×10^6 U/mg | 0.07 | 28.3 | 24 | 2.91 | 38 days and 38.0 days | 93.3% and 93.3%. |
